Results: patent US20210253736A1 (published 2021)

T1: Cyno FAP
T1 chain: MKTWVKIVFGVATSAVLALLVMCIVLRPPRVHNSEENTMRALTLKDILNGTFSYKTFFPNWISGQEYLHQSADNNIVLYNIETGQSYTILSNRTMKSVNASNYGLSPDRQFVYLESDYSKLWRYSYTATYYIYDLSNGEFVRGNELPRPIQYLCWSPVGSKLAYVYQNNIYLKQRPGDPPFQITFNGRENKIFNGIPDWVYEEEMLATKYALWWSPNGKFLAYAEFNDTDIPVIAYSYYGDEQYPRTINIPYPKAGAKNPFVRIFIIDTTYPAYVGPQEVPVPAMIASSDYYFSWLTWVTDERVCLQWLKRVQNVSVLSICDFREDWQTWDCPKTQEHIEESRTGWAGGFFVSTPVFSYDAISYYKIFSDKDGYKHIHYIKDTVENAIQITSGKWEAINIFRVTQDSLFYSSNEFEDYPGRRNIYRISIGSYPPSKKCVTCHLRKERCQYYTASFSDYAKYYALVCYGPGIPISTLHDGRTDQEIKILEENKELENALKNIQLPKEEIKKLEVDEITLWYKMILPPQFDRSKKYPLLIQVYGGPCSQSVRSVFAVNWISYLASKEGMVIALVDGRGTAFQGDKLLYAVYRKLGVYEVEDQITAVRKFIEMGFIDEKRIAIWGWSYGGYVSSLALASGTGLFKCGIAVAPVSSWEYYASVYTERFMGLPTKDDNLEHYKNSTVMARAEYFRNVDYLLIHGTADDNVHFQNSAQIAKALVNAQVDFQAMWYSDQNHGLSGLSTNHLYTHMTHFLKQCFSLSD


Experiments:
Cyno FAP = biological target: T1, Cyno FAP; assay: Octet
His-tagged human FAP = His-tagged human FAP (human, UniProt Q12884 26-760); assay: Octet

Kd (Cyno FAP) [nM]	Kd (His-tagged human FAP) [nM]	Binder
0.0264	0.00482	XENP23930 (29B11, bottle-opener) (antibody) chain 1: EVQLLESGGGLVQPGGSLRLSCAASGFTFSSYAMSWVRQAPGKGLEWVSAIIGSGGITYYADSVKGRFTISRDNSKNTLYLQMNSLRAEDTAVYYCAKGWFGGFNYWGQGTLVTVSSASTKGPSVFPLAPSSKSTSGGTAALGCLVKDYFPEPVTVSWNSGALTSGVHTFPAVLQSSGLYSLSSVVTVPSSSLGTQTYICNVNHKPSDTKVDKKVEPKSCDKTHTCPPCPAPPVAGPSVFLFPPKPKDTLMISRTPEVTCVVVDVKHEDPEVKFNWYVDGVEVHNAKTKPREEEYNSTYRVVSVLTVLHQDWLNGKEYKCKVSNKALPAPIEKTISKAKGQPREPQVYTLPPSREEMTKNQVSLTCDVSGFYPSDIAVEWESDGQPENNYKTTPPVLDSDGSFFLYSKLTVDKSRWEQGDVFSCSVMHEALHNHYTQKSLSLSPGK chain 2: not shown chain 3: EIVLTQSPGTLSLSPGERATLSCRASQSVTSSYLAWYQQKPGQAPRLLINVGSRRATGIPDRFSGSGSGTDFTLTISRLEPEDFAVYYCQQGIMLPPTFGQGTKVEIKRTVAAPSVFIFPPSDEQLKSGTASVVCLLNNFYPREAKVQWKVDNALQSGNSQESVTEQDSKDSTYSLSSTLTLSKADYEKHKVYACEVTHQGLSSPVTKSFNRGEC
3.16	5.46	XENP23934 (3F2, bottle-opener) (antibody) chain 1: not shown chain 2: not shown chain 3: EIVLTQSPGTLSLSPGERATLSCRASQSVTSSYLAWYQQKPGQAPRLLINVGSRRATGIPDRFSGSGSGTDFTLTISRLEPEDFAVYYCQQGIMLPPTFGQGTKVEIKRTVAAPSVFIFPPSDEQLKSGTASVVCLLNNFYPREAKVQWKVDNALQSGNSQESVTEQDSKDSTYSLSSTLTLSKADYEKHKVYACEVTHQGLSSPVTKSFNRGEC
